This is an account of results in US20120258090.

For data set [1], the target named is incompletely carboxylated recombinant human prothrombin, P00734.
Data set [2] deals with fully carboxylated recombinant human prothrombin, P00734.

B1: recombinant ecarin (activated, in CHO-S culture supernatant) (protein)
chain: VPPHERKFEKKFIELVVVVDHSMVTKYNNDSTAIRTWIYEMLNTVNEIYLPFNIRVALVGLEFWCNGDLINVTSTADDTLHSFGEWRASDLLNRKRHDHAQLLTNVTLDHSTLGITFVYGMCKSDRSVELILDYSNITFNMAYIIAHEMGHSLGMLHDTKFCTCGAKPCIMFGKESIPPPKEFSSCSYDQYNKYLLKYNPKCILDPPLRKDIASPAVCGNEIWEEGEECDCGSPADCRNPCCDAATCKLKPGAECGNGECCDKCKIRKAGTECRPARDDCDVAEHCTGQSAECPRNEFQRNGQPCLNNSGYCYNGDCPIMLNQCIALFSPSATVAQDSCFQRNLQGSYYGYCTKEIGYYGKRFPCAPQDVKCGRLYCLDNSFKKNMRCKNDYSYADENKGIVEPGTKCEDGKVCINRKCVDVNTAY
With B1, the activation of prothrombin entry is “the recombinant ecarin is able to efficiently activate both the fully carboxylated and the incompletely carboxylated prothrombins” in data set [1]; “the recombinant ecarin is able to efficiently activate both the fully carboxylated and the incompletely carboxylated prothrombins” in data set [2].
